# Source: article PMC2783852 (Archives of biochemistry and biophysics, 2009)
# Target: the molecule itself
# Experiment: SEC
protein,measurement,value
"recombinant human apomanganese superoxide dismutase (enzyme, UniProt P04179 25-222, looked up) KHSLPDLPYDYGALEPHINAQIMQLHHSKHHAAYVNNLNVTEEKYQEALAKGDVTAQIALQPALKFNGGGHINHSIFWTNLSPNGGGEPKGELLEAIKRDFGSFDKFKEKLTAASVGVQGSGWGWLGFNKERGHLQIAACPNQDPLQGTTGLIPLLGIDVWEHAYYLQYKNVRPDYLKAIWNVINWENVTERYMACKK",stoichiometry N,4
